We go through 27 molecules from US20140335107A1 (published 2014).

Substitutions are numbered along the chain they refer to. Numbers in names are those of the source.

T1: extracellular domain of human CD79b (huCD79becd) (human, UniProt P40259 29-159)
T1 construct: expressed in CHO cells
T1 sequence: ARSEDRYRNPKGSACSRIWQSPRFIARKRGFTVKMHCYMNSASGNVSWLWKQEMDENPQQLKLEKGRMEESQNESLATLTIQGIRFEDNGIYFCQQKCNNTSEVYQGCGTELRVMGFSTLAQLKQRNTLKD

T2: human CD79b (human, UniProt P40259 29-229)
T2 construct: endogenous CD79b on B-cell lines (BJAB, BJAB-luciferase, DoHH-2); also called PRO36249; CD79b expressed on the surface of BJAB-luciferase cells
T2 sequence: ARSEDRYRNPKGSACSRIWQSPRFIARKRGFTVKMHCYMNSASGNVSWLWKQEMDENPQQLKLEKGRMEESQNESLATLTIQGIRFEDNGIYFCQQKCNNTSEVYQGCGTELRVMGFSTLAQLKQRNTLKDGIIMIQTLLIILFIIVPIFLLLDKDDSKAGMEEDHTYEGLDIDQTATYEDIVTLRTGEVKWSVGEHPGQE

B1: huMA79b graft variant with HVR-L1 of SEQ ID NO: 17 (Fab, name in Kabat numbering, V domains shown)
VH: EVQLVESGGGLVQPGGSLRLSCAASGYTFSSYWIEWVRQAPGKGLEWVGEILPGGGDTNYNEIFKGRFTISADTSKNTAYLQMNSLRAEDTAVYYCTRRVPVYFDYWGQGTLVTVSS
VL: DIQMTQSPSSLSASVGDRVTITCKASKSVDYDGDSFLNWYQQKPGKAPKLLIYAASNLESGVPSRFSGSGSGTDFTLTISSLQPEDFATYYCQQSNEDPLTFGQGTKVEIKR
notes: Fab on phage; also called SPL-2 mutation
B2: huMA79b graft variant with HVR-H1 of SEQ ID NO: 57 (huMA79b H1-6) (Fab, V domains shown)
VH: B1 VH with T28P, S30T, S31R, E35N
VL: DIQMTQSPSSLSASVGDRVTITCKASQSVDYDGDSFLNWYQQKPGKAPKLLIYAASNLESGVPSRFSGSGSGTDFTLTISSLQPEDFATYYCQQSNEDPLTFGQGTKVEIK
notes: Fab on phage; also called H1-6 mutation
B3: huMA79b graft variant with HVR-L2 of SEQ ID NO: 25 (Fab, name in Kabat numbering, V domains shown)
VH: B1 VH
VL: B1 VL with K27Q, S56R, N57K, E59K, S60R
notes: Fab on phage
B4: huMA79b graft variant with HVR-L2 of SEQ ID NO: 29 (Fab, name in Kabat numbering, V domains shown)
VH: B1 VH
VL: B1 VL with K27Q, S56G, N57I, E59A, S60R
notes: Fab on phage
B5: huMA79b graft variant with HVR-L2 of SEQ ID NO: 27 (Fab, name in Kabat numbering, V domains shown)
VH: B1 VH
VL: B1 VL with K27Q, S56R, N57K, E59K
notes: Fab on phage
B6: huMA79b graft variant with HVR-L2 of SEQ ID NO: 26 (Fab, name in Kabat numbering, V domains shown)
VH: B1 VH
VL: B1 VL with K27Q, S56R, N57Y, E59K, S60R
notes: Fab on phage; also called L2-29 mutation
B7: huMA79b graft variant with HVR-L3 of SEQ ID NO: 20 (Fab, name in Kabat numbering, V domains shown)
VH: B1 VH
VL: B1 VL with K27Q, E97S
notes: Fab on phage; also called SPL-5 mutation
B8: huMA79b graft variant with HVR-L2 of SEQ ID NO: 28 (Fab, name in Kabat numbering, V domains shown)
VH: B1 VH
VL: B1 VL with K27Q, S56R, N57K, E59A
notes: Fab on phage
B9: huMA79b graft variant with HVR-L2 of SEQ ID NO: 31 (Fab, name in Kabat numbering, V domains shown)
VH: B1 VH
VL: B1 VL with K27Q, S56R, N57K, E59G
notes: Fab on phage; also called L2-38 mutation
B10: huMA79b graft variant with HVR-L2 of SEQ ID NO: 33 (Fab, name in Kabat numbering, V domains shown)
VH: B1 VH
VL: B1 VL with K27Q, A55S, S56R, N57Y, E59S, S60R
notes: Fab on phage
B11: huMA79b graft variant with HVR-L3 of SEQ ID NO: 21 (Fab, name in Kabat numbering, V domains shown)
VH: B1 VH
VL: B1 VL with K27Q, E97K
notes: Fab on phage
B12: huMA79b graft variant with HVR-L2 of SEQ ID NO: 23 (Fab, name in Kabat numbering, V domains shown)
VH: B1 VH
VL: B1 VL with K27Q, N57R
notes: Fab on phage
B13: huMA79b graft variant with HVR-L2 of SEQ ID NO: 18 (Fab, name in Kabat numbering, V domains shown)
VH: B1 VH
VL: B1 VL with K27Q, L58R
notes: Fab on phage
B14: huMA79b graft variant with HVR-L2 of SEQ ID NO: 35 (Fab, name in Kabat numbering, V domains shown)
VH: B1 VH
VL: B1 VL with K27Q, L58R, E59K
notes: Fab on phage
B15: huMA79b graft variant with HVR-L2 of SEQ ID NO: 19 (Fab, name in Kabat numbering, V domains shown)
VH: B1 VH
VL: B1 VL with K27Q, E59K
notes: Fab on phage
B16: huMA79b graft variant with HVR-L2 of SEQ ID NO: 34 (Fab, name in Kabat numbering, V domains shown)
VH: B1 VH
VL: B1 VL with K27Q, A55G, N57K, E59L, S60R
notes: Fab on phage
B17: huMA79b graft variant with HVR-L2 of SEQ ID NO: 32 (Fab, name in Kabat numbering, V domains shown)
VH: B1 VH
VL: B1 VL with K27Q, S56R, N57H, E59K, S60R
notes: Fab on phage
B18: huMA79b graft variant with HVR-L2 of SEQ ID NO: 30 (Fab, name in Kabat numbering, V domains shown)
VH: B1 VH
VL: B1 VL with K27Q, S56R, N57K, E59R
notes: Fab on phage
B19: huMA79b graft variant with HVR-L2 of SEQ ID NO: 24 (Fab, name in Kabat numbering, V domains shown)
VH: B1 VH
VL: B1 VL with K27Q, S56R, N57K, E59G, S60N
notes: Fab on phage
B20: huMA79b graft variant with HVR-L2 of SEQ ID NO: 36 (Fab, name in Kabat numbering, V domains shown)
VH: B1 VH
VL: B1 VL with K27Q, N57K, E59G
notes: Fab on phage
B21: thio huMA79b.v28-HC(A118C)-BMPEO-DM1 (antibody, human IgG1, kappa)
light: DIQLTQSPSSLSASVGDRVTITCKASQSVDYEGDSFLNWYQQKPGKAPKLLIYAASNLESGVPSRFSGSGSGTDFTLTISSLQPEDFATYYCQQSNEDPLTFGQGTKVEIKRTVAAPSVFIFPPSDEQLKSGTASVVCLLNNFYPREAKVQWKVDNALQSGNSQESVTEQDSKDSTYSLSSTLTLSKADYEKHKVYACEVTHQGLSSPVTKSFNRGEC
heavy: not shown
modifications: BMPEO-DM1 on the engineered Cys at EU position 118 (sequential position 118; Kabat position 114)
notes: TDC
B22: thio huMA79b.v28-HC(A118C)-MC-MMAF (antibody, human IgG1, kappa)
light: B21 light
heavy: not shown
modifications: MC-MMAF on the engineered Cys at EU position 118 (sequential position 118; Kabat position 114)
notes: TDC
B23: thio huMA79b.v28-HC(A118C)-MCvcPAB-MMAE (antibody, human IgG1, kappa)
light: B21 light
heavy: not shown
modifications: MC-val-cit-PAB-MMAE on the engineered Cys at EU position 118 (sequential position 118; Kabat position 114)
notes: TDC; also called thio huMA79b.v28-HC(A118C)-MC-val-cit-PAB-MMAE
B24: thio huMA79b.v18-HC(A118C)-MCvcPAB-MMAE (antibody, human IgG1, kappa)
light: B21 light with E32D
heavy: not shown
modifications: MC-val-cit-PAB-MMAE on the engineered Cys at EU position 118 (sequential position 118; Kabat position 114)
notes: TDC
B25: thio huMA79b.v18-HC(A118C)-MC-MMAF (antibody, human IgG1, kappa)
light: B21 light with E32D
heavy: not shown
modifications: MC-MMAF on the engineered Cys at EU position 118 (sequential position 118; Kabat position 114)
notes: TDC
B26: thio huMA79b.v18-HC(A118C)-BMPEO-DM1 (antibody, human IgG1, kappa)
light: B21 light with E32D
heavy: not shown
modifications: BMPEO-DM1 on the engineered Cys at EU position 118 (sequential position 118; Kabat position 114)
notes: TDC; also called huMA79b.v18-HC(A118C) thioMAb-BMPEO-DM1
B27: MA79b-grafted humanized antibody variant 18 (huMA79b.v18) (antibody, human IgG1, kappa)
light: B21 light with E32D
heavy: not shown
notes: IgG

The target of one test is T1, extracellular domain of human CD79b …. Description: phage selection, Fab on phage. The procedure: For phage selection, the extracellular domain of CD79b (huCD79becd) (2 μg/ml) was immobilized in PBS on MaxiSorp microtiter plates (Nunc) overnight at 4° C. Plates were blocked for at least 1 h using Casein Blocker (Pierce). Phage were harvested from the culture supernatant and suspended in PBS containing 0.5% BSA and 0.05% Tween 20 (PBSBT). Following addition of the phage library and phage selection for 2 h, microtiter wells were washed extensively with PBS containing 0.05% Tween 20 (PBST) to remove unbound phage and bound phage were eluted by incubating the wells with 100 mM HCl for 30 min. Selection stringency may be increased during successive rounds of selection by increasing the number of washes with PBST or by incubating with soluble huCD79becd for increasing time periods prior to elution.
On to B1, for which the binding result is on record as “binds”.
Consider B2, for which the binding result is “binds”.
Consider B3, for which the binding result was “binds”.
For B4, the binding result is reported as “binds”.
Same read-out and setting: as for B5, the entry is “binds”; as for B6, “binds”; as for B7, “binds”.
As for B8, the binding result is reported as “binds”.
The same measure, in the same setting: next, B9: “binds”; B10: “binds”.
For the molecule B11, the binding result is “binds”.
Still for that read-out and setting: as for B12, the entry is “binds”; as for B13, “binds”; as for B14, “binds”.
On the same count and under the same terms, next, B15: “binds”.
For B16, the binding result is recorded as “binds”.
Consider B17, for which the binding result was “binds”.
Still for that read-out and setting: as for B18, the entry is “binds”; as for B19, “binds”.
As for B20, the binding result is recorded as “binds”.

In a further test the target is T2, human CD79b. Description: FACS on BJAB-luciferase cells. The procedure: The binding affinity of thio huMA79b.v18, thio huMA79b.v28 drug conjugates and thio MA79b drug conjugates to CD79b expressed on BJAB-luciferase cells was determined by FACS analysis. Further, the binding affinity of thio anti-cynoCD79b(ch10D10) drug conjugates to CD79b expressed on BJAB cells expressing cynoCD79b was determined by FACS analysis.
Briefly, approximately 1×10⁶ cells in 100 μl were contacted with varying amounts (1.0 μg, 01. μg or 0.01 μg of Ab per million cells of BJAB-luciferase cells or BJAB cells expressing cynoCD79b (for anti-cynoCD79b thioMAbs)) of one of the following anti-CD79b thioMAb drug conjugates or naked (unconjugated Ab as a control): (1) thio MA79b-LC(V205C)-MC-MMAF or (2) thio MA79b-HC(A118C)-MC-MMAF (FIGS. 29A-B, respectively); (3) thio huMA79b.v18-HC(A118C)-MC-MMAF, (4) thio huMA79b.v18-HC(A118C)-MC-vcPAB-MMAE or (5) thio huMA79b.v18-HC(A118C)-BMPEO-DM1 (FIGS. 30B-D, respectively); (6) thio huMA79b.v28-HC(A118C)-MCvcPAB-MMAE, (7) thio huMA79b.v28-HC(A118C)-BMPEO-DM1, or (8) thio huMA79b.v28-HC(A118C)-MC-MMAF (see FIGS. 31B-31D, respectively); or (9) thio anti-cynoCDb79(ch10D10)-HC(A118C)-MCvcPAB-MMAE, (10) thio anti-cynoCD79b(ch10D10)-HC(A118C)-BMPEO-DM1 or (11) thio anti-cynoCD79b(ch10D10)-HC(A118C)-MC-MMAF (see FIGS. 32B-32D, respectively). PE conjugated mouse anti-human Ig was used as the secondary detecting antibody (BD Cat#555787).
Regarding B21, the binding result was “binds”.
Regarding B22, the binding result is “binds”.
Take B23: the binding result is listed as “binds”.
Regarding B24, the binding result is reported as “binds”.
As to B25, the binding result was “binds”.
Still for that read-out and setting: as for B26, the entry is “binds”.

The target of the next test is T1, extracellular domain of human CD79b …. Description: Biacore (SPR), IgG. The method, then: Binding of Fab and IgG variants of MA79b, the MA79b-grafted “humanized” antibody or MA79b-grafted “humanized” antibody variants to immobilized huCD79becd or huCD79b-Fc or the 16 amino acid peptide containing the epitope for MA79b was measured by surface plasma resonance. Affinity determinations were performed by surface plasmon resonance using a BIAcore™-2000. The antigen, huCD79becd or huCD79b-Fc was immobilized (approximately 50-200 RU) in 10 mM sodium acetate pH 4.8 on a CM5 sensor chip. Due to a large avidity effect, affinity measurements were sensitive to the amount of huCD79becd immobilized. For this reason, affinities, determined for samples run on different days, were normalized to MA79b that was run along side as a standard. In experiments that measured binding to the 16 amino acid peptide containing the epitope for MA79b ([…]) (SEQ ID NO: 16), the biotinylated peptide was captured (approximately 20 RU) on a streptavidin coated sensor chip. Purified MA79b-grafted “humanized” antibody variant (as Fab or IgG) (a 2-fold serial dilution of 0.5 to 1000 nM in PBST) was injected at a flow rate of 30 μL/min. Each sample was analyzed with 4-minute association and 10-minute disassociation. After each injection the chip was regenerated using 10 mM Glycine pH 1.7. […]
For orientation: In SPR one partner is held on a chip, and binding of the other changes the refractive index at the surface.
Regarding B27, the “fold improvement in dimeric binding compared to variant 17” value was determined as 2 fold.
